Key:
[1] = biological target: T1, SARS-CoV-2 S protein ectodomain trimer (residues 1-1211, foldon trimerization motif, 6xHis tag, AviT (SARS-CoV-2; bacteriophage T4, UniProt P0DTC2 14-1211; P10104 458-484)
[2] = biological target: T1, SARS-CoV-2 S protein ectodomain trimer …; assay: BLI on immobilized S protein ECD
[3] = biological target: T1, SARS-CoV-2 S protein ectodomain trimer …; assay: ELISA on biotinylated S protein trimer captured with immobilized streptavidin
[4] = biological target: T1, SARS-CoV-2 S protein ectodomain trimer …; assay: BLI on immobilized S protein

Binder	Kd [1]	koff [1]	kon [1]	fold improvement of apparent KD relative to IgG 15033 [2]	binding result [3]	binding result [4]
peptide-IgG 33^HN1 (peptide p16 fused to the N-terminus of the heavy chain of IgG 15033) (antibody) heavy: not shown light: DIQMTQSPSSLSASVGDRVTITCRASQSVSSAVAWYQQKPGKAPKLLIYSASDLYSGVPSRFSGSRSGTDFTLTISSLQPEDFATYYCQQSYRYPITFGQGTKVEIKRTVAAPSVFIFPPSDEQLKSGTASVVCLLNNFYPREAKVQWKVDNALQSGNSQESVTEQDSKDSTYSLSSTLTLSKADYEKHKVYACEVTHQGLSSPVTKSFNRGEC	24 pM	3.8e-05 s⁻¹	1.6e+06 M⁻¹ s⁻¹			
peptide-IgG 33^HR1 (peptide p102 fused to the N-terminus of the heavy chain of IgG 15033) (antibody) heavy: not shown light: DIQMTQSPSSLSASVGDRVTITCRASQSVSSAVAWYQQKPGKAPKLLIYSASDLYSGVPSRFSGSRSGTDFTLTISSLQPEDFATYYCQQSYRYPITFGQGTKVEIKRTVAAPSVFIFPPSDEQLKSGTASVVCLLNNFYPREAKVQWKVDNALQSGNSQESVTEQDSKDSTYSLSSTLTLSKADYEKHKVYACEVTHQGLSSPVTKSFNRGEC	< 1 pM	< 1e-07 s⁻¹	1.2e+06 M⁻¹ s⁻¹	> 100 fold		
peptide-IgG 33^LN1 (peptide p16 fused to the N-terminus of the light chain of IgG 15033) (antibody) heavy: not shown light: DFDFAENWMEQLKVMLGGGGSGGGGSGGGGSGGGGSDIQMTQSPSSLSASVGDRVTITCRASQSVSSAVAWYQQKPGKAPKLLIYSASDLYSGVPSRFSGSRSGTDFTLTISSLQPEDFATYYCQQSYRYPITFGQGTKVEIKRTVAAPSVFIFPPSDEQLKSGTASVVCLLNNFYPREAKVQWKVDNALQSGNSQESVTEQDSKDSTYSLSSTLTLSKADYEKHKVYACEVTHQGLSSPVTKSFNRGEC	< 1 pM	< 1e-07 s⁻¹	1.1e+06 M⁻¹ s⁻¹	> 100 fold		
IgG 15031 (antibody, V domains shown) VH: EVQLVESGGGLVQPGGSLRLSCAASGFDLTGSYMHWVRQAPGKGLEWVAGISASGGATAYADSVKGRFTISADTSKNTAYLQMNSLRAEDTAVYYCARSRSSSYSSSGWRYYSGAFDYWGQGTLVTVSS VL: DIQMTQSPSSLSASVGDRVTITCRASQSVSSAVAWYQQKPGKAPKLLIYSASDLYSGVPSRFSGSRSGTDFTLTISSLQPEDFATYYCQQGSYLFTFGQGTKVEIKR					binds	
15031 Fab-IgG (tetravalent) (antibody) heavy: not shown light: DIQMTQSPSSLSASVGDRVTITCRASQSVSSAVAWYQQKPGKAPKLLIYSASDLYSGVPSRFSGSRSGTDFTLTISSLQPEDFATYYCQQGSYLFTFGQGTKVEIKRTVAAPSVFIFPPSDEQLKSGTASVVCLLNNFYPREAKVQWKVDNALQSGNSQESVTEQDSKDSTYSLSSTLTLSKADYEKHKVYACEVTHQGLSSPVTKSFNRGEC						binds
15031 IgG-Fab (tetravalent) (antibody) heavy: not shown light: DIQMTQSPSSLSASVGDRVTITCRASQSVSSAVAWYQQKPGKAPKLLIYSASDLYSGVPSRFSGSRSGTDFTLTISSLQPEDFATYYCQQGSYLFTFGQGTKVEIKRTVAAPSVFIFPPSDEQLKSGTASVVCLLNNFYPREAKVQWKVDNALQSGNSQESVTEQDSKDSTYSLSSTLTLSKADYEKHKVYACEVTHQGLSSPVTKSFNRGEC						binds
peptide-IgG 33^LR1 (peptide p102 fused to the N-terminus of the light chain of IgG 15033) (antibody) heavy: not shown light: ECWEWSYQLQEWSPCPGGGGSGGGGSGGGGSGGGGSDIQMTQSPSSLSASVGDRVTITCRASQSVSSAVAWYQQKPGKAPKLLIYSASDLYSGVPSRFSGSRSGTDFTLTISSLQPEDFATYYCQQSYRYPITFGQGTKVEIKRTVAAPSVFIFPPSDEQLKSGTASVVCLLNNFYPREAKVQWKVDNALQSGNSQESVTEQDSKDSTYSLSSTLTLSKADYEKHKVYACEVTHQGLSSPVTKSFNRGEC	6.1 pM	2.2e-06 s⁻¹	350000 M⁻¹ s⁻¹			
